{"source": "paper PMC8716928", "about": "(2021)", "parents": {"B1": {"name": "GvpM wild type, entire protein, with CGFP fused at the C-terminus [Halobacterium salinarum] / GvpL with NGFP fused at the N-terminus [Halobacterium salinarum] (parent complex)", "chain 1": "MEPTKDETHAIVEFVDVLLRDGAVIQADVIVTVADIPLIGISLRAAIAGMTTMTEYGLFEEWDAAHRQQSEAFTTSPTADRRED", "chain 2": "MTDHRPSPEEEQTTANEERTVSNGRYLYCVVDTTSSESATLSTTGVDDNPVYVVEADGVGAVVHDCETVYETEDLEQVKRWLVTHQQVVDAASDAFGTPLPMRFDTVLEGGDASIERWLEDHYEGFRDELASFAGVWEYRINLLWDSAPFEETIADRDDRLRELRQRQQQSGAGKKFLLEKQSDQRLQELKRERRTELADQLKEAITPVVNDLTEQDTNTPLQDEHSSIEKEQIVRFAVLADEDDETALGDRLDTIVEHEGVEIRFTGPWPPYTFAPDIGK"}, "B2": {"name": "GvpJ wild type with CGFP fused at the C-terminus [Halobacterium salinarum] / GvpL with NGFP fused at the N-terminus [Halobacterium salinarum] (parent complex)", "chain 1": "MSDPKPTRSQGDLAEMLEMLLDKGVVVNADIAVSVGDTELLGIELRAAIASFETAAEYGLEFPTGTDMERVESAANISPDQSDPASETQSETESTNPLSDDSTPTASTSAEETK", "chain 2": "B1 chain 2"}, "B3": {"name": "Fragment M1–25 of GvpM with NGFP fused at the C-terminus [Halobacterium salinarum] / GvpL with CGFP fused at the C-terminus [Halobacterium salinarum] (parent complex)", "chain 1": "MEPTKDETHAIVEFVDVLLRDGAVI", "chain 2": "B1 chain 2"}}, "data": [{"variants_of": "B1", "experiment": "split-GFP; Hfx. volcanii transformants; parent: 7.8; read off a plot", "values": [{"variant": "chain 1 MEPTKDETHAIVEFVDVLLRDDAVIQADVIVTVADIPLIGISLRAAIAGMTTMTEYGLFEEWDAAHRQQSEAFTTSPTADRRED", "note": "[chain 1 G22D]", "response": "~9.5"}, {"variant": "chain 1 MEPTKDETHAIVEFVDVLLRDGAVIQADVIVTVADIPLIGISLRAEIAGMTTMTEYGLFEEWDAAHRQQSEAFTTSPTADRRED", "note": "[chain 1 A46E]", "response": "~5.6"}, {"variant": "chain 1 MEPTKDETHAIVEFVDVLLRDGAVIQADVIVTVADIPLIGISLRAAAAGMTTMTEYGLFEEWDAAHRQQSEAFTTSPTADRRED", "note": "[chain 1 I47A]", "response": "~7.1"}, {"variant": "chain 1 MEPTKDETHAIVEFVDVLLRDGDVIQADVIVTVADIPLIGISLRAAIAGMTTMTEYGLFEEWDAAHRQQSEAFTTSPTADRRED", "note": "[chain 1 A23D]", "response": "~9.7"}, {"variant": "chain 1 MEPTKDETHAIVEFEDVLLRDGAVIQADVIVTVADIPLIGISLRAAIAGMTTMTEYGLFEEWDAAHRQQSEAFTTSPTADRRED", "note": "[chain 1 V15E]", "response": "~6.4"}, {"variant": "chain 1 MEPTKDETHAIVEFVDVLLRDGAVIQADVIVTVADIPLIGISLREAIAGMTTMTEYGLFEEWDAAHRQQSEAFTTSPTADRRED", "note": "[chain 1 A45E]", "response": "~18"}]}, {"variants_of": "B2", "experiment": "split-GFP; Hfx. volcanii transformants; parent: 13; read off a plot", "values": [{"variant": "chain 1 MSDPKPTRSQGDLAEMLEMLLDKGVVVNADIAVSVGDTELLGIELRAAAASFETAAEYGLEFPTGTDMERVESAANISPDQSDPASETQSETESTNPLSDDSTPTASTSAEETK", "note": "[chain 1 I49A]", "response": "~18"}, {"variant": "chain 1 MSDPKPTRSQGDLAEMLDMLLDKGVVVNADIAVSVGDTELLGIELRAAIASFETAAEYGLEFPTGTDMERVESAANISPDQSDPASETQSETESTNPLSDDSTPTASTSAEETK", "note": "[chain 1 E18D]", "response": "~14"}, {"variant": "chain 1 MSDPKPTRSQGDLAEMLQMLLDKGVVVNADIAVSVGDTELLGIELRAAIASFETAAEYGLEFPTGTDMERVESAANISPDQSDPASETQSETESTNPLSDDSTPTASTSAEETK", "note": "[chain 1 E18Q]", "response": "~9"}, {"variant": "chain 1 MSDPKPTRSQGDLAEMLAMLLDKGVVVNADIAVSVGDTELLGIELRAAIASFETAAEYGLEFPTGTDMERVESAANISPDQSDPASETQSETESTNPLSDDSTPTASTSAEETK", "note": "[chain 1 E18A]", "response": "~9.5"}, {"variant": "chain 1 MSDPKPTRSQGDLAEMLRMLLDKGVVVNADIAVSVGDTELLGIELRAAIASFETAAEYGLEFPTGTDMERVESAANISPDQSDPASETQSETESTNPLSDDSTPTASTSAEETK", "note": "[chain 1 E18R]", "response": "~9.2"}, {"variant": "chain 1 MSDPKPTRSQGDLAEMLEMILDKGVVVNADIAVSVGDTELLGIELRAAIASFETAAEYGLEFPTGTDMERVESAANISPDQSDPASETQSETESTNPLSDDSTPTASTSAEETK", "note": "[chain 1 L20I]", "response": "~14"}, {"variant": "chain 1 MSDPKPTRSQGDLAEMLEMLLDKGVVVNADIAVSVGDTELLGIELRAAIASFETAAEYGLEFPTGTDMARVESAANISPDQSDPASETQSETESTNPLSDDSTPTASTSAEETK", "note": "[chain 1 E69A]", "response": "~14"}, {"variant": "chain 1 MSDPKPTRSQGDLAEALEMLLDKGVVVNADIAVSVGDTELLGIELRAAIASFETAAEYGLEFPTGTDMERVESAANISPDQSDPASETQSETESTNPLSDDSTPTASTSAEETK", "note": "[chain 1 M16A]", "response": "~9.3"}, {"variant": "chain 1 MSDPKPTRSQGDLAEMLEMLLDRGVVVNADIAVSVGDTELLGIELRAAIASFETAAEYGLEFPTGTDMERVESAANISPDQSDPASETQSETESTNPLSDDSTPTASTSAEETK", "note": "[chain 1 K23R]", "response": "~14"}, {"variant": "chain 1 MSDPKPTRSQGDLAEMLEMLLDAGVVVNADIAVSVGDTELLGIELRAAIASFETAAEYGLEFPTGTDMERVESAANISPDQSDPASETQSETESTNPLSDDSTPTASTSAEETK", "note": "[chain 1 K23A]", "response": "~14"}, {"variant": "chain 1 MSDPKPTRSQGDLAEMLEMLLDKGVVVNADIAVSVGDTELLGIELRAAIAAFETAAEYGLEFPTGTDMERVESAANISPDQSDPASETQSETESTNPLSDDSTPTASTSAEETK", "note": "[chain 1 S51A]", "response": "~17"}, {"variant": "chain 1 MSDPKPTRSQGDLAEMLEMLLNKGVVVNADIAVSVGDTELLGIELRAAIASFETAAEYGLEFPTGTDMERVESAANISPDQSDPASETQSETESTNPLSDDSTPTASTSAEETK", "note": "[chain 1 D22N]", "response": "~14"}, {"variant": "chain 1 MSDPKPTRSQGDLAEMLEMLLDKGVVVNADIAVSVGDTELLGIELRAAIDSFETAAEYGLEFPTGTDMERVESAANISPDQSDPASETQSETESTNPLSDDSTPTASTSAEETK", "note": "[chain 1 A50D]", "response": "~17"}, {"variant": "chain 1 MSDPKPTRSQGDLAEMLEMLLDKGVVVNDDIAVSVGDTELLGIELRAAIASFETAAEYGLEFPTGTDMERVESAANISPDQSDPASETQSETESTNPLSDDSTPTASTSAEETK", "note": "[chain 1 A29D]", "response": "~25"}, {"variant": "chain 1 MSDPKPTRSQGDLAEMLEMLLDKGVVVNADIADSVGDTELLGIELRAAIASFETAAEYGLEFPTGTDMERVESAANISPDQSDPASETQSETESTNPLSDDSTPTASTSAEETK", "note": "[chain 1 V33D]", "response": "~17"}, {"variant": "chain 1 MSDPKPTRSQGDLAEMLEMLLDKGVVVNADIAASVGDTELLGIELRAAIASFETAAEYGLEFPTGTDMERVESAANISPDQSDPASETQSETESTNPLSDDSTPTASTSAEETK", "note": "[chain 1 V33A]", "response": "~18"}, {"variant": "chain 1 MSDPKPTRSQGDLAEMLEMLADKGVVVNADIAVSVGDTELLGIELRAAIASFETAAEYGLEFPTGTDMERVESAANISPDQSDPASETQSETESTNPLSDDSTPTASTSAEETK", "note": "[chain 1 L21A]", "response": "~9"}, {"variant": "chain 1 MSDPKPTRSQGDLAEMLEMLLDKGVVVNADIAVSVGDTELLGIELRAAIASFETAAEEGLEFPTGTDMERVESAANISPDQSDPASETQSETESTNPLSDDSTPTASTSAEETK", "note": "[chain 1 Y58E]", "response": "~7.8"}, {"variant": "chain 1 MSDPKPTRSQGDLAEMAEMLLDKGVVVNADIAVSVGDTELLGIELRAAIASFETAAEYGLEFPTGTDMERVESAANISPDQSDPASETQSETESTNPLSDDSTPTASTSAEETK", "note": "[chain 1 L17A]", "response": "~14"}, {"variant": "chain 1 MSDPKPTRSQGDLAAMLEMLLDKGVVVNADIAVSVGDTELLGIELRAAIASFETAAEYGLEFPTGTDMERVESAANISPDQSDPASETQSETESTNPLSDDSTPTASTSAEETK", "note": "[chain 1 E15A]", "response": "~9.5"}, {"variant": "chain 1 MSDPKPTRSQGDLAEMLEELLDKGVVVNADIAVSVGDTELLGIELRAAIASFETAAEYGLEFPTGTDMERVESAANISPDQSDPASETQSETESTNPLSDDSTPTASTSAEETK", "note": "[chain 1 M19E]", "response": "~7"}, {"variant": "chain 1 MSDPKPTRSQGDLAEMLEMLLDKGVVVNADIAVSVGDTELLGIELRDAIASFETAAEYGLEFPTGTDMERVESAANISPDQSDPASETQSETESTNPLSDDSTPTASTSAEETK", "note": "[chain 1 A47D]", "response": "~22"}, {"variant": "chain 1 MSDPKPTRSQGDLAEMLEMLLDKAVVVNADIAVSVGDTELLGIELRAAIASFETAAEYGLEFPTGTDMERVESAANISPDQSDPASETQSETESTNPLSDDSTPTASTSAEETK", "note": "[chain 1 G24A]", "response": "~7.2"}]}, {"variants_of": "B3", "experiment": "split-GFP; Hfx. volcanii transformants; parent: 65; read off a plot", "values": [{"variant": "chain 1 MEPAKDETHAIVEFVDVLLRDGAVI", "note": "[chain 1 T4A]", "response": "~70"}, {"variant": "chain 1 MEPTKDETHAIVEFVDVLLRAGAVI", "note": "[chain 1 D21A]", "response": "~67"}, {"variant": "chain 1 MEPTKDETHAIVEFVDVLLADGAVI", "note": "[chain 1 R20A]", "response": "~54"}, {"variant": "chain 1 MEPTKDETHAIYEFVDVLLRDGAVI", "note": "[chain 1 V12Y]", "response": "~58"}, {"variant": "chain 1 MEPTKDETHAIVEFVAVLLRDGAVI", "note": "[chain 1 D16A]", "response": "~46"}, {"variant": "chain 1 MEPTKDEAHAIVEFVDVLLRDGAVI", "note": "[chain 1 T8A]", "response": "~110"}, {"variant": "chain 1 MEPTKDETHAIVEFVDALLRDGAVI", "note": "[chain 1 V17A]", "response": "~74"}, {"variant": "chain 1 MEPTKDETHADVEFVDVLLRDGAVI", "note": "[chain 1 I11D]", "response": "~110"}, {"variant": "chain 1 MEPTKDETHAAVEFVDVLLRDGAVI", "note": "[chain 1 I11A]", "response": "~84"}, {"variant": "chain 1 MEPTKDETHAIVEFVDVLLRDAAVI", "note": "[chain 1 G22A]", "response": "~86"}, {"variant": "chain 1 MEPTKDETHAIVEAVDVLLRDGAVI", "note": "[chain 1 F14A]", "response": "~57"}, {"variant": "chain 1 MEPTKDETHDIVEFVDVLLRDGAVI", "note": "[chain 1 A10D]", "response": "~58"}, {"variant": "chain 1 MEPTKDETHAIVAFVDVLLRDGAVI", "note": "[chain 1 E13A]", "response": "~61"}, {"variant": "chain 1 MEPTKDETHAIVEFVDVLLRDGDVI", "note": "[chain 1 A23D]", "response": "~94"}, {"variant": "chain 1 MEPTKDKTHAIVEFVDVLLRDGAVI", "note": "[chain 1 E7K]", "response": "~80"}, {"variant": "chain 1 MEPTKDETHAIVEFADVLLRDGAVI", "note": "[chain 1 V15A]", "response": "~100"}, {"variant": "chain 1 MAPTKDETHAIVEFVDVLLRDGAVI", "note": "[chain 1 E2A]", "response": "~67"}, {"variant": "chain 1 MEPTKDETHAIVEFVDVLLRDGAAI", "note": "[chain 1 V24A]", "response": "~74"}, {"variant": "chain 1 MEATKDETHAIVEFVDVLLRDGAVI", "note": "[chain 1 P3A]", "response": "~84"}, {"variant": "chain 1 MEPTKDETHAIVEFVDVALRDGAVI", "note": "[chain 1 L18A]", "response": "~75"}, {"variant": "chain 1 MEPTKDETAAIVEFVDVLLRDGAVI", "note": "[chain 1 H9A]", "response": "~62"}, {"variant": "chain 1 MEPTKDETHAIVEFVDVLARDGAVI", "note": "[chain 1 L19A]", "response": "~81"}]}]}
